Patent publication US20170145086A1

How the values were obtained:
[1] = target: HA-GCN4 hAPRIL (amino acid residues 105-250) (human) (UniProt O75888); test: indirect ELISA, purified antibody, 3-parameter fit
[2] = target: HA-GCN4 hAPRIL (amino acid residues 105-250) (human) (UniProt O75888); test: blocking ELISA; blocked: APRIL binding to TACI-Fc
[3] = target: HA-GCN4 hAPRIL (amino acid residues 105-250) (human) (UniProt O75888); test: blocking ELISA; blocked: human APRIL binding to human BCMA-Fc
[4] = target: HA-GCN4 hAPRIL (amino acid residues 105-250) (human) (UniProt O75888); test: blocking ELISA; blocked: human APRIL binding to human TACI-Fc
[5] = target: HA-GCN4 hAPRIL (amino acid residues 105-250) (human) (UniProt O75888); test: blocking ELISA, 4-parameter fit; blocked: human APRIL binding to human BCMA-Fc
[6] = target: HA-GCN4 hAPRIL (amino acid residues 105-250) (human) (UniProt O75888); test: blocking ELISA, 4-parameter fit; blocked: human APRIL binding to human TACI-Fc

Sequence of HA-GCN4 hAPRIL (amino acid residues 105-250) (human) (O75888 105-250): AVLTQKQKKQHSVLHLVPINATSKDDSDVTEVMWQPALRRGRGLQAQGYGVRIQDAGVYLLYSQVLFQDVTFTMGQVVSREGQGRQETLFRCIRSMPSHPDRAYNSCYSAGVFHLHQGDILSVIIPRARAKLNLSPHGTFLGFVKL

EC50 [1]: 0.0104 µg/mL
IC50 [2]: 0.204 µg/mL
% Inhibition [3]: 99%
% Inhibition [4]: 99%
IC50 [5]: 3.14 nM
IC50 [6]: 2.85 nM
B1: 0201 (antibody, from another filing)
scFv: EVQLVQSGAEVKKPGASVKVSCKTSGYTFTDNYMHWVRQAPGQGLEWMGWISPNSSTTLYAQKFRGRVTLTRDTSVSTAYMELSGLDSDDTALYFCARGGRLAGSTVFTPAFEYWGRGTMVTVSSGGGGSGGGGSGGGGSAQAVLTQPSSVSEAPRQRVTISCSGSSSNIGNNAVKWYQQLPGKAPKLLIYYDDLLPSGVSDRFSGSKSGTSASLAISGLQSEDEADYYCAAWDDSLNGYVFGTGTKVTVLG
